According to the supplement of paper PMC10567573:

B1: ELF3 (parent)
chain: LSKEYWDCLEGKKSKHAPRGTHLW

Variants of: B1
Experiment: protein stability index of a GFP-peptide fusion (GPS, HEK-293T) (PSI 1-6); higher = more stable
Details: c terminus: a fixed tail appended
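Note: lentivirally expressed fusions sorted by FACS into six bins by GFP to DsRed ratio, PSI derived from sequencing read proportions per bin multiplied by bin number.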

Row | Variant | protein stability index
1 | LSKEYWDCLQGKKSKHAPRGTHLW [E10Q] | 2.73
2 | LSKEYWDCLRGKKSKHAPRGTHLW [E10R] | 1.86
3 | LSKEYWDCLSGKKSKHAPRGTHLW [E10S] | 2.49
4 | LSKEYWDCLTGKKSKHAPRGTHLW [E10T] | 2.1
5 | LSKEYWDCLVGKKSKHAPRGTHLW [E10V] | 2.28
6 | LSKEYWDCLWGKKSKHAPRGTHLW [E10W] | 2.08
7 | LSKEYWDCLYGKKSKHAPRGTHLW [E10Y] | 1.63
8 | LSKEYWDCLEAKKSKHAPRGTHLW [G11A] | 2.91
9 | LSKEYWDCLECKKSKHAPRGTHLW [G11C] | 2.27
10 | LSKEYWDCLEDKKSKHAPRGTHLW [G11D] | 3.19
11 | LSKEYWDCLEEKKSKHAPRGTHLW [G11E] | 3.29
12 | LSKEYWDCLEFKKSKHAPRGTHLW [G11F] | 2.43
13 | LSKEYWDCLEHKKSKHAPRGTHLW [G11H] | 2.17
14 | LSKEYWDCLEIKKSKHAPRGTHLW [G11I] | 2.29
15 | LSKEYWDCLEKKKSKHAPRGTHLW [G11K] | 2.97
16 | LSKEYWDCLELKKSKHAPRGTHLW [G11L] | 2.71
17 | LSKEYWDCLEMKKSKHAPRGTHLW [G11M] | 1.94
18 | LSKEYWDCLENKKSKHAPRGTHLW [G11N] | 3.48
19 | LSKEYWDCLEPKKSKHAPRGTHLW [G11P] | 2.89
20 | LSKEYWDCLEQKKSKHAPRGTHLW [G11Q] | 2.69
21 | LSKEYWDCLERKKSKHAPRGTHLW [G11R] | 3.26
22 | LSKEYWDCLESKKSKHAPRGTHLW [G11S] | 3.5
23 | LSKEYWDCLETKKSKHAPRGTHLW [G11T] | 2.98
24 | LSKEYWDCLEVKKSKHAPRGTHLW [G11V] | 2.2

Row | Variant | protein stability index
25 | LSKEYWDCLEWKKSKHAPRGTHLW [G11W] | 1.82
26 | LSKEYWDCLEYKKSKHAPRGTHLW [G11Y] | 2.58
27 | LSKEYWDCLEGAKSKHAPRGTHLW [K12A] | 2.54
28 | LSKEYWDCLEGCKSKHAPRGTHLW [K12C] | 1.97
29 | LSKEYWDCLEGDKSKHAPRGTHLW [K12D] | 3.4
30 | LSKEYWDCLEGEKSKHAPRGTHLW [K12E] | 3.21
31 | LSKEYWDCLEGFKSKHAPRGTHLW [K12F] | 2.71
32 | LSKEYWDCLEGGKSKHAPRGTHLW [K12G] | 2.58
33 | LSKEYWDCLEGHKSKHAPRGTHLW [K12H] | 2.52
34 | LSKEYWDCLEGIKSKHAPRGTHLW [K12I] | 2.26
35 | LSKEYWDCLEGLKSKHAPRGTHLW [K12L] | 2.06
36 | LSKEYWDCLEGMKSKHAPRGTHLW [K12M] | 2.53
37 | LSKEYWDCLEGNKSKHAPRGTHLW [K12N] | 3.68
38 | LSKEYWDCLEGPKSKHAPRGTHLW [K12P] | 2.96
39 | LSKEYWDCLEGQKSKHAPRGTHLW [K12Q] | 2.99
40 | LSKEYWDCLEGRKSKHAPRGTHLW [K12R] | 2.35
41 | LSKEYWDCLEGSKSKHAPRGTHLW [K12S] | 3.38
42 | LSKEYWDCLEGTKSKHAPRGTHLW [K12T] | 2.43
43 | LSKEYWDCLEGVKSKHAPRGTHLW [K12V] | 2.23
44 | LSKEYWDCLEGWKSKHAPRGTHLW [K12W] | 1.54
45 | LSKEYWDCLEGYKSKHAPRGTHLW [K12Y] | 1.88
46 | LSKEYWDCLEGKASKHAPRGTHLW [K13A] | 2.76
47 | LSKEYWDCLEGKCSKHAPRGTHLW [K13C] | 2.24
48 | LSKEYWDCLEGKDSKHAPRGTHLW [K13D] | 3.24

Row | Variant | protein stability index
49 | LSKEYWDCLEGKESKHAPRGTHLW [K13E] | 3.52
50 | LSKEYWDCLEGKFSKHAPRGTHLW [K13F] | 2.74
51 | LSKEYWDCLEGKGSKHAPRGTHLW [K13G] | 3.08
52 | LSKEYWDCLEGKHSKHAPRGTHLW [K13H] | 2.87
53 | LSKEYWDCLEGKISKHAPRGTHLW [K13I] | 2.22
54 | LSKEYWDCLEGKLSKHAPRGTHLW [K13L] | 2.64
55 | LSKEYWDCLEGKMSKHAPRGTHLW [K13M] | 2.3
56 | LSKEYWDCLEGKNSKHAPRGTHLW [K13N] | 2.36
57 | LSKEYWDCLEGKPSKHAPRGTHLW [K13P] | 2.47
58 | LSKEYWDCLEGKQSKHAPRGTHLW [K13Q] | 3.17
59 | LSKEYWDCLEGKRSKHAPRGTHLW [K13R] | 2.87
60 | LSKEYWDCLEGKTSKHAPRGTHLW [K13T] | 2.37
61 | LSKEYWDCLEGKVSKHAPRGTHLW [K13V] | 2.32
62 | LSKEYWDCLEGKWSKHAPRGTHLW [K13W] | 2.92
63 | LSKEYWDCLEGKYSKHAPRGTHLW [K13Y] | 2.82
64 | LSKEYWDCLEGKKAKHAPRGTHLW [S14A] | 2.81
65 | LSKEYWDCLEGKKCKHAPRGTHLW [S14C] | 2.1
66 | LSKEYWDCLEGKKDKHAPRGTHLW [S14D] | 4.18
67 | LSKEYWDCLEGKKEKHAPRGTHLW [S14E] | 3.16
68 | LSKEYWDCLEGKKFKHAPRGTHLW [S14F] | 1.99
69 | LSKEYWDCLEGKKGKHAPRGTHLW [S14G] | 2.77
70 | LSKEYWDCLEGKKHKHAPRGTHLW [S14H] | 2.5
71 | LSKEYWDCLEGKKIKHAPRGTHLW [S14I] | 2.68
72 | LSKEYWDCLEGKKKKHAPRGTHLW [S14K] | 3.08

Row | Variant | protein stability index
73 | LSKEYWDCLEGKKLKHAPRGTHLW [S14L] | 2.19
74 | LSKEYWDCLEGKKMKHAPRGTHLW [S14M] | 2.24
75 | LSKEYWDCLEGKKNKHAPRGTHLW [S14N] | 2.96
76 | LSKEYWDCLEGKKPKHAPRGTHLW [S14P] | 2.94
77 | LSKEYWDCLEGKKQKHAPRGTHLW [S14Q] | 2.71
78 | LSKEYWDCLEGKKRKHAPRGTHLW [S14R] | 2.92
79 | LSKEYWDCLEGKKTKHAPRGTHLW [S14T] | 3.13
80 | LSKEYWDCLEGKKVKHAPRGTHLW [S14V] | 2.94
81 | LSKEYWDCLEGKKWKHAPRGTHLW [S14W] | 3.31
82 | LSKEYWDCLEGKKYKHAPRGTHLW [S14Y] | 3.48
83 | LSKEYWDCLEGKKSAHAPRGTHLW [K15A] | 2.86
84 | LSKEYWDCLEGKKSCHAPRGTHLW [K15C] | 2.29
85 | LSKEYWDCLEGKKSDHAPRGTHLW [K15D] | 3
86 | LSKEYWDCLEGKKSEHAPRGTHLW [K15E] | 2.77
87 | LSKEYWDCLEGKKSFHAPRGTHLW [K15F] | 2.74
88 | LSKEYWDCLEGKKSGHAPRGTHLW [K15G] | 2.56
89 | LSKEYWDCLEGKKSHHAPRGTHLW [K15H] | 2.52
90 | LSKEYWDCLEGKKSIHAPRGTHLW [K15I] | 2.61
91 | LSKEYWDCLEGKKSLHAPRGTHLW [K15L] | 2.16
92 | LSKEYWDCLEGKKSMHAPRGTHLW [K15M] | 3.18
93 | LSKEYWDCLEGKKSNHAPRGTHLW [K15N] | 2.79
94 | LSKEYWDCLEGKKSPHAPRGTHLW [K15P] | 2.53
